Test results reported in the supplement of paper PMC10724198.
± gives the standard deviation of the averaged measurements.

Tests used:
Saccharomyces cerevisiae [1] = test: protein stability index of tFT-peptide fusion (C-terminal peptide) (PSI (0-1 scale)); higher = more stable (slower turnover)
Experimental: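 MPS profiling in S. cerevisiae of the tFT-X12 degron library: putative degron peptides plus stable controls, 12 aa, fused to the C-terminus of a sfGFP-mCherry timer. Cells are FACS-sorted into 8 mCherry/sfGFP bins and deep-sequenced. PSI runs from 0 (unstable) to 1 (stable). Backgrounds are wild type, das1Δ and doa10Δ at 30 °C, and wild type, das1Δ, cdc34-1 and cdc53-1 at 37 °C; 2-3 technical replicates each.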

Saccharomyces cerevisiae [2] = test: as above; conditions: genetic background: wild type; temperature: 30 C
[3] = genetic background: cdc34-1, temperature: 37 C
[4] = genetic background: cdc53-1, temperature: 37 C
[5] = genetic background: das1 deletion, temperature: 30 C
[6] = genetic background: das1 deletion, temperature: 37 C
[7] = genetic background: doa10 deletion, temperature: 30 C
[8] = genetic background: wild type, temperature: 30 C
[9] = genetic background: wild type, temperature: 37 C
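Note: PSI is a weighted mean of sequencing reads over stability bins, variants kept only with over 10 reads, mCherry proximal and sfGFP distal, peptide attached via GGGS linker.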

| Sequence | protein stability index (Saccharomyces cerevisiae [1]; [3]) | protein stability index (Saccharomyces cerevisiae [1]; [4]) | protein stability index (Saccharomyces cerevisiae [1]; [5]) | protein stability index (Saccharomyces cerevisiae [1]; [6]) | protein stability index (Saccharomyces cerevisiae [1]; [7]) | protein stability index (Saccharomyces cerevisiae [1]; [8]) | protein stability index (Saccharomyces cerevisiae [1]; [9]) | protein stability index (Saccharomyces cerevisiae [2]) |
| --- | --- | --- | --- | --- | --- | --- | --- | --- |
| VVATLRCLRCSV | 0.474 ± 0.014 | 0.501 ± 0.052 | 0.346 ± 0.035 | 0.5244 ± 0.0026 | 0.236 ± 0.014 | 0.273 ± 0.043 | 0.441 ± 0.013 | 0.405 ± 0.021 |
| VVCFVVCGFYLG | 0.235 ± 0.018 | 0.316 ± 0.021 | 0.261 ± 0.025 | 0.452 ± 0.011 | 0.224 ± 0.011 | 0.242 ± 0.051 | 0.428 ± 0.024 | 0.205 ± 0.055 |
| VVCLLGIFYGFC | 0.382 ± 0.023 | 0.497 ± 0.045 | 0.313 ± 0.031 | 0.5138 ± 0.00014 | 0.293 ± 0.021 | 0.307 ± 0.031 | 0.51 ± 0.014 | 0.446 ± 0.07 |
| VVLCQVCVLWGW | 0.0623 ± 0.011 | 0.202 ± 0.029 | 0.167 ± 0.031 | 0.252 ± 0.01 | 0.148 ± 0.0088 | 0.151 ± 0.029 | 0.229 ± 0.025 | 0.257 ± 0.016 |
| VVLVLLCIGRLL | 0.367 ± 0.012 | 0.511 ± 0.026 | 0.305 ± 0.033 | 0.5545 ± 0.0033 | 0.27 ± 0.0062 | 0.3 ± 0.026 | 0.475 ± 0.011 | 0.376 ± 0.0063 |
| VVWIQRTVLSLI | 0.565 ± 0.038 | 0.603 ± 0.015 | 0.505 ± 0.03 | 0.6 ± 0.011 | 0.151 ± 0.0065 | 0.184 ± 0.027 | 0.327 ± 0.0052 | 0.27 ± 0.049 |
| VWFFGVVLGGLW | 0.527 ± 0.071 | 0.554 ± 0.0091 | 0.423 ± 0.031 | 0.584 ± 0.014 | 0.4157 ± 0.00077 | 0.421 ± 0.018 | 0.561 ± 0.03 | 0.4443 ± 0.0021 |
| VWRLCFPFALVR | 0.0577 ± 0.022 | 0.0537 ± 0.012 | 0.155 ± 0.025 | 0.18 ± 0.023 | 0.225 ± 0.0026 | 0.132 ± 0.025 | 0.1406 ± 0.00093 | 0.194 ± 0.02 |
| VWVISLCIGGVG | 0.298 ± 0.0059 | 0.366 ± 0.0041 | 0.241 ± 0.026 | 0.399 ± 0.011 | 0.205 ± 0.011 | 0.225 ± 0.021 | 0.3811 ± 0.002 | 0.314 ± 0.025 |
| VYFRMGFMRVCV | 0.487 ± 0.05 | 0.5 ± 0.037 | 0.416 ± 0.032 | 0.554 ± 0.0079 | 0.32 ± 0.013 | 0.344 ± 0.027 | 0.493 ± 0.015 | 0.4611 ± 0.0042 |
| VYFRYWLLVVVF | 0.0945 ± 0.029 | 0.106 ± 0.022 | 0.148 ± 0.034 | 0.215 ± 0.0027 | 0.117 ± 0.029 | 0.101 ± 0.026 | 0.15 ± 0.0062 | 0.129 ± 0.019 |
| VYRILFWFLCFG | 0.489 ± 0.023 | 0.406 ± 0.072 | 0.422 ± 0.026 | 0.564 ± 0.043 | 0.4545 ± 0.0021 | 0.412 ± 0.01 | 0.529 ± 0.045 | 0.4679 ± 0.0011 |
| WDPEVVHRLWLN | 0.587 ± 0.037 | 0.772 ± 0.029 | 0.662 ± 0.034 | 0.766 ± 0.013 | 0.125 ± 0.0063 | 0.14 ± 0.0092 | 0.155 ± 0.019 | 0.237 ± 0.019 |
| WFCCAQRGVIVG | 0.446 ± 0.018 | 0.452 ± 0.028 | 0.336 ± 0.024 | 0.502 ± 0.0087 | 0.311 ± 0.011 | 0.336 ± 0.026 | 0.478 ± 0.0083 | 0.405 ± 0.012 |
| WFFRLFFLFFSG | 0.34 ± 0.008 | 0.335 ± 0.019 | 0.4 ± 0.028 | 0.502 ± 0.019 | 0.563 ± 0.022 | 0.371 ± 0.019 | 0.412 ± 0.02 | 0.383 ± 0.0048 |
| WFLMVILYTVYG | 0.157 ± 0.0068 | 0.2 ± 0.0073 | 0.182 ± 0.035 | 0.304 ± 0.0055 | 0.149 ± 0.033 | 0.187 ± 0.032 | 0.278 ± 0.013 | 0.299 ± 0.0077 |
| WGCTGGRGRLVC | 0.69 ± 0.025 | 0.74 ± 0.013 | 0.643 ± 0.029 | 0.7405 ± 0.0052 | 0.254 ± 0.011 | 0.295 ± 0.013 | 0.555 ± 0.024 | 0.428 ± 0.049 |

| Sequence | protein stability index (Saccharomyces cerevisiae [1]; [3]) | protein stability index (Saccharomyces cerevisiae [1]; [4]) | protein stability index (Saccharomyces cerevisiae [1]; [5]) | protein stability index (Saccharomyces cerevisiae [1]; [6]) | protein stability index (Saccharomyces cerevisiae [1]; [7]) | protein stability index (Saccharomyces cerevisiae [1]; [8]) | protein stability index (Saccharomyces cerevisiae [1]; [9]) | protein stability index (Saccharomyces cerevisiae [2]) |
| --- | --- | --- | --- | --- | --- | --- | --- | --- |
| WGGIASLVASAA | 0.36 ± 0.049 | 0.437 ± 0.1 | 0.236 ± 0.033 | 0.411 ± 0.0061 | 0.214 ± 0.006 | 0.259 ± 0.019 | 0.378 ± 0.023 | 0.364 ± 0.0089 |
| WLFASCVFFWSS | 0.447 ± 0.045 | 0.502 ± 0.0068 | 0.386 ± 0.026 | 0.525 ± 0.015 | 0.355 ± 0.0086 | 0.37 ± 0.0092 | 0.483 ± 0.011 | 0.426 ± 0.0054 |
| WLSFAIECGMVW | 0.1938 ± 0.0014 | 0.28 ± 0.058 | 0.252 ± 0.023 | 0.3286 ± 0.0012 | 0.2135 ± 0.0014 | 0.249 ± 0.026 | 0.287 ± 0.032 | 0.357 ± 0.045 |
| WLTCSLVFNVFW | 0.429 ± 0.025 | 0.455 ± 0.007 | 0.406 ± 0.014 | 0.482 ± 0.0057 | 0.448 ± 0.032 | 0.389 ± 0.026 | 0.471 ± 0.015 | 0.438 ± 0.0061 |
| WQSFRDKLIKGN | 0.646 ± 0.044 | 0.716 ± 0.026 | 0.643 ± 0.028 | 0.754 ± 0.041 | 0.188 ± 0.034 | 0.204 ± 0.036 | 0.3754 ± 0.0012 | 0.264 ± 0.071 |
| WRCECELASACA | 0.458 ± 0.015 | 0.473 ± 0.027 | 0.347 ± 0.037 | 0.508 ± 0.0082 | 0.31 ± 0.0062 | 0.361 ± 0.024 | 0.486 ± 0.0079 | 0.431 ± 0.013 |
| WRGALHPTPVAA | 0.285 ± 0.018 | 0.282 ± 0.0046 | 0.249 ± 0.035 | 0.419 ± 0.0075 | 0.198 ± 0.0084 | 0.253 ± 0.029 | 0.4 ± 0.017 | 0.339 ± 0.0086 |
| WSNICFWCGVWS | 0.685 ± 0.027 | 0.826 ± 0.011 | 0.673 ± 0.038 | 0.815 ± 0.033 | 0.356 ± 0.0059 | 0.39 ± 0.024 | 0.6615 ± 0.0049 | 0.458 ± 0.057 |
| WSWVFVVLRFGR | 0.485 ± 0.035 | 0.5367 ± 0.0019 | 0.405 ± 0.027 | 0.574 ± 0.017 | 0.412 ± 0.025 | 0.394 ± 0.024 | 0.562 ± 0.014 | 0.527 ± 0.048 |
| WVLFRLPYQFFS | 0.668 ± 0.048 | 0.707 ± 0.021 | 0.57 ± 0.038 | 0.737 ± 0.026 | 0.368 ± 0.0073 | 0.393 ± 0.022 | 0.633 ± 0.0017 | 0.436 ± 0.0098 |
| WWDCAVWVRCGG | 0.477 ± 0.026 | 0.471 ± 0.0077 | 0.382 ± 0.024 | 0.5379 ± 0.0022 | 0.407 ± 0.013 | 0.382 ± 0.019 | 0.516 ± 0.012 | 0.471 ± 0.015 |
| YCAMVAVGVVGG | 0.468 ± 0.037 | 0.506 ± 0.025 | 0.329 ± 0.021 | 0.503 ± 0.0096 | 0.306 ± 0.016 | 0.334 ± 0.018 | 0.493 ± 0.012 | 0.509 ± 0.03 |
| YCLSCLAKASLM | 0.495 ± 0.036 | 0.606 ± 0.0019 | 0.524 ± 0.021 | 0.5686 ± 0.0039 | 0.164 ± 0.0029 | 0.19 ± 0.0066 | 0.38 ± 0.011 | 0.28811 ± 0.00011 |
| YFCVELSVFGFF | 0.416 ± 0.018 | 0.546 ± 0.077 | 0.37 ± 0.046 | 0.48 ± 0.018 | 0.324 ± 0.02 | 0.358 ± 0.023 | 0.476 ± 0.033 | 0.4 ± 0.036 |
| YFFFLFFLLPPF | 0.453 ± 0.045 | 0.477 ± 0.025 | 0.408 ± 0.041 | 0.505 ± 0.0069 | 0.416 ± 0.007 | 0.356 ± 0.034 | 0.498 ± 0.0073 | 0.374 ± 0.029 |
| YGHLPLLVLFCV | 0.459 ± 0.013 | 0.509 ± 0.037 | 0.352 ± 0.035 | 0.541 ± 0.013 | 0.211 ± 0.0055 | 0.237 ± 0.023 | 0.399 ± 0.022 | 0.366 ± 0.049 |
